{"source": "patent US20250188153A1", "about": "(UNIVERSITY OF GEORGIA RESEARCH FOUNDATION, published 2025)", "experiment_in_all_cases": "cell-based or functional assay", "key": {"[1]": {"molecular_target": "T1, hMPV F protein of hMPV TN/93-32 (genotype B) (human metapneumovirus)"}, "[2]": {"molecular_target": "T2, hMPV F protein of hMPV CAN/97-83 (genotype A) (human metapneumovirus, UniProt Q6WB98 19-539)", "T2 sequence (Q6WB98 19-539)": "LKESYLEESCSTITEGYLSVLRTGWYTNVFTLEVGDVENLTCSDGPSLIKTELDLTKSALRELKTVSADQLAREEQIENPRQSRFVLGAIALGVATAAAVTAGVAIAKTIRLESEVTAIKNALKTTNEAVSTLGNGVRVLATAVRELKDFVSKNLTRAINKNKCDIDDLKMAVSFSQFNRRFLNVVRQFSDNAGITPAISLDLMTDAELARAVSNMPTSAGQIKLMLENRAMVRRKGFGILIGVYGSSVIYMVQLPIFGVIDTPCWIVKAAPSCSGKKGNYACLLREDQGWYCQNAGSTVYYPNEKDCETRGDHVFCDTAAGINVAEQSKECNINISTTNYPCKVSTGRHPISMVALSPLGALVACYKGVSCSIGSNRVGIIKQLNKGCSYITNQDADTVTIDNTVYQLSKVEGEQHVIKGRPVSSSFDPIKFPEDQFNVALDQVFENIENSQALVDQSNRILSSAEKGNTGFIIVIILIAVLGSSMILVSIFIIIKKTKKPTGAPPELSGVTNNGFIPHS"}, "[3]": {"molecular_target": "T1, hMPV F protein of hMPV TN/93-32 …", "remark": "listed apart in the source"}, "[4]": {"molecular_target": "T2, hMPV F protein of hMPV CAN/97-83 …", "remark": "listed apart in the source"}}}
{"binder": "MPV467 (antibody, V domains shown) VH: EVQLVESGGGVVRPGTSLRVSCAAFDFNFRDYGMHWVRQAPGKGLEWVAGIWYDGSNKDYADSVKGRFTISRDNSQNTLYLQMNSLRVEDTAVYYCARDPRTHREGALSHFDSWGQGTLVTVSS VL: PNELTQDPAVSVALGQTVRITCQGDSLRNYFAGWYQQKPGQAPLLVLYGENIRPSGIPDRFSGSSSGNTVSLTITGAQAEDEADYYCNSRDNSGNHWVFGGGTRLTVL", "values": [{"measurement": "neutralizing activity, plaque-reduction assay", "setting": "[1]", "value": "< 1", "unit": "ng/mL"}, {"measurement": "neutralizing activity, plaque-reduction assay", "setting": "[2]", "value": "< 20", "unit": "ng/mL"}, {"measurement": "IC50, plaque-reduction neutralization of hMPV TN/93-32", "setting": "[3]", "value": 0.6, "unit": "ng/mL"}, {"measurement": "IC50, plaque-reduction neutralization of hMPV CAN/97-83", "setting": "[4]", "value": 5, "unit": "ng/mL"}]}
